From US20110293511A1 (LUDWIG INSTITUTE FOR CANCER RESEARCH, published 2011) come the findings set out here.

Assay [1] concerns the target T1, anti-idiotype antibody LMH-12.
T1 construct: mouse IgG1 kappa; also called clone 5B8; SB8
In words: sandwich ELISA: capture on plate-bound LMH-12 (10 µg/ml), detection with biotinylated LMH-12 and avidin-HRP.

Assay [2] deals with EGFR fragment 1-176, yeast-displayed (human, UniProt P00533 25-200). As to the kind of experiment: flow cytometry on yeast displaying the EGFR fragment, % positive cells.
The target of assay [3] is EGFR fragment 475-621, yeast-displayed (human, UniProt P00533 499-645). The description is as above.
Assay [4] addresses T2, de2-7 EGFR unique junctional peptide (human).
T2 construct: non-biotinylated; also called Junction Peptide
T2 peptide: LEEKKGNYVVTDH-OH
As to the kind of experiment: dot-blot immune stain.

The target in assay [5] is T3, biotinylated de2-7 specific peptide (Biotin-LEEKKGNYVVTDH) (human).
T3 construct: also called unique de2-7 EGFR peptide
T3 peptide: Biotin-LEEKKGNYVVTDH
In words: ELISA, biotinylated peptide on streptavidin plates. On the technique in general: In an ELISA, binding on a coated surface is turned into a signal by an enzyme label.

Assay [6] addresses T4, Peptide C, C-terminal biotinylated de2-7 peptide (human, C-terminal biotin; the reagent list prints it on an added lysine, LEEKKGNYVVTDH(K-Biot)-OH).
T4 peptide: LEEKKGNYVVTDH
As to the kind of experiment: BIAcore, Peptide C on streptavidin chip. A general note: Surface plasmon resonance follows binding to a sensor surface in real time, without labels.

For assay [7], the target named is T5, EGFR fragment 1-294, yeast-displayed (human, UniProt P00533 25-318).
T5 construct: range 1-294
In words: flow cytometry, indirect immunofluorescence on yeast displaying EGFR fragment 1-294. Background: Flow cytometry measures light scatter and fluorescence of single cells or particles in a stream.

Ends that are not written are not given here. * marks the point of attachment. Biotin = O=C1N[C@H]2[C@H](CS[C@H]2CCCCC(=O)*)N1

B1: chimeric antibody ch806 (antibody, human IgG1, V domains shown)
VH: DVQLQESGPSLVKPSQSLSLTCTVTGYSITSDFAWNWIRQFPGNKLEWMGYISYSGNTRYNPSLKSRISITRDTSKNQFFLQLNSVTIEDTATYYCVTAGRGFPYWGQGTLVTVSA
VL: DILMTQSPSSMSVSLGDTVSITCHSSQDINSNIGWLQQRPGKSFKGLIYHGTNLDDEVPSRFSGSGSGADYSLTISSLESEDFADYYCVQYAQFPWTFGGGTKLEIKR
notes: also called chAb806
In the case of B1, the EC50 (read off the curve) (commonly the midpoint of the concentration-response curve) in assay [1] is ~0.6 µg/mL.

B2: mAb806 (antibody, V domains shown)
VH: DVQLQESGPSLVKPSQSLSLTCTVTGYSITSDFAWNWIRQFPGNKLEWMGYISYSGNTRYNPSLKSRISITRDTSKNQFFLQLNSVTIEDTATYYCVTAGRGFPYWGQGTLVTVSA
VL: DILMTQSPSSMSVSLGDTVSITCHSSQDINSNIGWLQQRPGKSFKGLIYHGTNLDDEVPSRFSGSGSGADYSLTISSLESEDFADYYCVQYAQFPWTFGGGTKLEIKR
notes: murine IgG2b
B2: in assay [1], the “EC50 (read off the curve)” value was ~0.07 µg/mL. Moreover, the binding result in assay [2] is “no binding (tested: 10 µg/ml (single concentration))”; in assay [3], “no binding (tested: 10 µg/ml (single concentration))”; in assay [4] it was “no binding”; in assay [5], “no binding”; in assay [6], “no binding (tested: 100 nM)”; in assay [7], “no binding (tested: 10 µg/ml (single concentration))”.
